Molecular target: the molecule itself
Test: thioflavin T fluorescence + atomi

B1: Ure2 (yeast prion protein Ure2, Saccharomyces cerevisiae) (natural protein, UniProt P23202 1-354, looked up)
chain: MMNNNGNQVSNLSNALRQVNIGNRNSNTTTDQSNINFEFSTGVNNNNNNNSSSNNNNVQNNNSGRNGSQNNDNENNIKNTLEQHRQQQQAFSDMSHVEYSRITKFFQEQPLEGYTLFSHRSAPNGFKVAIVLSELGFHYNTIFLDFNLGEHRAPEFVSVNPNARVPALIDHGMDNLSIWESGAILLHLVNKYYKETGNPLLWSDDLADQSQINAWLFFQTSGHAPMIGQALHFRYFHSQKIASAVERYTDEVRRVYGVVEMALAERREALVMELDTENAAAYSAGTTPMSQSRFFDYPVWLVGDKLTIADLAFVPWNNVVDRIGINIKIEFPEVYKWTKHMMRRPAVIKALRGE
notes: Ure2, Saccharomyces cerevisiae; the introduction describes it as a 354-amino acid homodimeric protein; It starts as the native dimer and assembles into protofibrils and mature fibrils on incubation at 4°C; also called WT Ure2; native Ure2; source: Escherichia coli, purified under native conditions
  binding result: binds
